Data reported in the supplement of paper PMC10126150.
± gives the standard deviation of the averaged measurements.

system: ATP; assay: switch fluorescence ratio, 500 uM ATP over buffer (Cy3 cluster intensity, sum of 5 cycles each) (fold (ratio)); higher = stronger signal-on switching upon ATP binding; sequences stand for … in TCGTCGGCAGCGTCAGATGTGTATAAGAGACAGTTTTTTTTTTTTTTTTTTTTTTTTT…TC; conditions: aptamer strand: ATP DNA aptamer (quencher-CACCTGGGGGAGTATTGCGGAGGAAGG + anchor), 100 nM annealed; ATP concentration: 500 uM
Method in brief: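 Clusters carrying Cy3-labelled switching strands on a modified Illumina MiSeq flow-cell were annealed to 100 nM quencher-labelled ATP aptamer and imaged in selection buffer. They were imaged again after 15 min with 500 uM ATP at 22 °C, over five buffer/ATP cycles with NaOH stripping and re-annealing in between. For each cluster, the fluorescence ratio is the summed Cy3 intensity of the target cycles divided by that of the buffer cycles, averaged per switch-domain sequence. Clusters outside 100-1000 RFU were left out.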
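Note: ATP exposure 15 min at 22 °C before imaging.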

Sequence	switch fluorescence ratio
TGGGGGCGTC	1.02 ± 0.036
TGGGGGCTAG	0.997 ± 0.037
TGGGGGCTGT	0.998 ± 0.016
TGGGGGCTT	1.03 ± 0.014
TGGGGGGAGA	1.01 ± 0.045
TGGGGGGCAC	0.986 ± 0.043
TGGGGGGGTG	1.01 ± 0.033
TGGGGGGGTT	1 ± 0.034
TGGGGGGTCG	1.03 ± 0.051
TGGGGGGTTC	1.04 ± 0.082
TGGGGGGTTT	1 ± 0.04
TGGGGGTAGC	1.001 ± 0.0091
TGGGGGTATT	1.05 ± 0.16
TGGGGGTCAC	0.9632 ± 0.0067
TGGGGGTCGG	1.03 ± 0.017
TGGGGGTCTG	1.01 ± 0.045
TGGGGGTGG	0.957 ± 0.046
TGGGGGTGTC	1.03 ± 0.024
TGGGGTAATG	0.995 ± 0.038
TGGGGTATAA	1.001 ± 0.0042
TGGGGTATTT	0.997 ± 0.04
TGGGGTCCGG	0.97 ± 0.079
TGGGGTGGAG	0.97 ± 0.032
TGGGGTGGCG	1.01 ± 0.067
TGGGGTTAGA	0.978 ± 0.029

Sequence	switch fluorescence ratio
TGGGGTTAGG	1 ± 0.024
TGGGGTTGCA	0.99 ± 0.015
TGGGGTTGGA	1.01 ± 0.025
TGGGGTTTGT	0.976 ± 0.03
TGGGTAACAT	0.99 ± 0.031
TGGGTAGGAA	1.0335 ± 0.00064
TGGGTAGGGT	0.991 ± 0.036
TGGGTAGGTG	1.11 ± 0.028
TGGGTAGTTT	1 ± 0.015
TGGGTATGGG	1.01 ± 0.037
TGGGTATTCG	0.967 ± 0.029
TGGGTCAAAT	1.02 ± 0.027
TGGGTCACAA	0.992 ± 0.024
TGGGTCATCT	1.02 ± 0.065
TGGGTCATGA	1.03 ± 0.034
TGGGTCATTG	0.973 ± 0.043
TGGGTCCAGT	0.98 ± 0.011
TGGGTCTAGG	0.99 ± 0.043
TGGGTCTGTT	1.01 ± 0.046
TGGGTGGGGC	0.997 ± 0.018
TGGGTGGGGT	1.01 ± 0.026
TGGGTGGTCA	0.987 ± 0.06
TGGGTGTAGC	0.986 ± 0.011
TGGGTGTATA	1.01 ± 0.017
TGGGTGTGGG	1.02 ± 0.028

Sequence	switch fluorescence ratio
TGGGTTAACT	1.02 ± 0.041
TGGGTTAATC	1.01 ± 0.052
TGGGTTACTT	0.995 ± 0.053
TGGGTTAGGG	1.03 ± 0.044
TGGGTTATCT	0.972 ± 0.028
TGGGTTCGCG	0.988 ± 0.021
TGGGTTCGGG	0.9503 ± 0.0091
TGGGTTGAGT	0.987 ± 0.017
TGGGTTGATA	0.9958 ± 0.0069
TGGGTTGGCC	0.99 ± 0.043
TGGGTTGGCG	1.04 ± 0.028
TGGGTTGGCT	1.015 ± 0.0098
TGGGTTGGTA	1.02 ± 0.02
TGGGTTGGTG	1.03 ± 0.032
TGGGTTGTGG	1.01 ± 0.053
TGGGTTTAAC	1.08 ± 0.18
TGGGTTTCCT	0.987 ± 0.017
TGGGTTTGGG	0.984 ± 0.035
TGGGTTTTAC	1.01 ± 0.049
TGGGTTTTGC	0.994 ± 0.044
TGGGTTTTTC	0.968 ± 0.03
TGGTAAAAAA	0.959 ± 0.016
TGGTAACAGG	1.01 ± 0.021
TGGTACAAAA	1.04 ± 0.025
TGGTACAGGG	1.03 ± 0.018

Sequence	switch fluorescence ratio
TGGTACGGAG	1 ± 0.011
TGGTAGACGG	1.15 ± 0.26
TGGTAGGCGT	0.987 ± 0.031
TGGTAGGGGG	0.9867 ± 0.0046
TGGTATAGGG	1.01 ± 0.024
TGGTATAGTT	0.981 ± 0.049
TGGTATTCGC	1.01 ± 0.023
TGGTATTGGT	0.9655 ± 0.0041
TGGTCAAAGA	0.986 ± 0.015
TGGTCAGGGG	1.09 ± 0.056
TGGTCCGGGA	1.03 ± 0.029
TGGTCGCAGG	0.9899 ± 0.005
TGGTCGCGAT	1.53 ± 0.73
TGGTCGGGGG	0.997 ± 0.025
TGGTCGTAGT	0.994 ± 0.048
TGGTCTAATG	0.9791 ± 0.002
TGGTGCGGGC	1.05 ± 0.12
TGGTGCTGGG	0.9733 ± 0.0066
TGGTGGAAAC	0.99116 ± 0.00084
TGGTGGAGAT	1.01 ± 0.028
TGGTGGAGCA	0.986 ± 0.024
TGGTGGGGCT	0.994 ± 0.026
TGGTGGGGTT	0.984 ± 0.02
TGGTGGTGCA	1.04 ± 0.039
TGGTGGTGTA	0.954 ± 0.035
